From the supplement of paper PMC6757056
± gives the standard deviation of the averaged measurements.

B1: library; a variant is named by its letters at N, in order (parent)
chain: GCUGUCACCGGUGCUUGGUACGUUAUAUUCAGCCGGUCUGAUGAGUCUNNNNNNAGACGAAACAGC

Assays:
[1] = variants of: B1; experiment: normalized RNA/DNA level without ligand (relative to sTRSVctl = 100) (log10 (% of sTRSVctl)); HEK293T overexpressing SLC46A1; higher = less ribozyme self-cleavage, higher mRNA level; conditions: without (6R,S)-folinic acid; ligand present: no
How it was run: (§1)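 Total RNA, extracted with EDTA 72 h after HEK293T cells were transfected with 4 µg per 6-well well of reporter-linked ribozyme switch library plasmids, was reverse-transcribed, amplified, barcoded and sequenced. Ligand, if used, was added 1 h before transfection. RNA level was derived from RNA reads divided by DNA reads and normalized to a spiked-in non-cleaving sequence or to the top sequences. This was multiplied by 100 and log10-transformed, with the top set of 25 sequences and a ≥100 DNA read minimum.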

[2] = variants of: B1; experiment: normalized RNA/DNA level with ligand (relative to sTRSVctl = 100) (log10 (% of sTRSVctl)); HEK293T overexpressing SLC46A1; ligand concentration (+) RNA-Seq: 6 mM; higher = less ribozyme self-cleavage, higher mRNA level; conditions: with (6R,S)-folinic acid; ligand present: yes
How it was run: as §1

Variant	normalized RNA/DNA level without ligand (log10) [1]	normalized RNA/DNA level with ligand (log10) [2]
AACUCA	2.03 ± 0.0039	2.003 ± 0.016
GACUCA	2.004 ± 0.0082	1.98 ± 0.028
UACUCA	1.9962 ± 0.00016	1.98 ± 0.038
CACUCC	2.044 ± 0.0027	2.02 ± 0.04
AACUCC	2.06 ± 0.031	2.01 ± 0.032
UACUCC	2.051 ± 0.012	2.034 ± 0.0051
CACUCG	2.01 ± 0.03	2 ± 0.024
GACUCG	2.0319 ± 0.0013	2.05 ± 0.032
UACUCG	1.8448 ± 0.00067	1.99 ± 0.031
CACUCU	2.057 ± 0.015	2.043 ± 0.018
AACUCU	2.0187 ± 0.0003	2.02 ± 0.031
GACUCU	2.033 ± 0.0069	2 ± 0.066
UACUCU	2.027 ± 0.0077	2.05 ± 0.028
GACUGA	2.03 ± 0.02	2 ± 0.025
UACUGA	1.9244 ± 0.0015	2.03 ± 0.034
CACUGC	2.057 ± 0.016	2.05 ± 0.032
AACUGC	2.048 ± 0.015	2.06 ± 0.038
GACUGC	1.998 ± 0.0095	2.02 ± 0.037
GACUGG	2.023 ± 0.018	2.018 ± 0.018
CACUGU	2.057 ± 0.0081	2.056 ± 0.011
AACUGU	1.97 ± 0.016	2.007 ± 0.02
GACUGU	1.98 ± 0.011	1.98 ± 0.068
UACUGU	1.936 ± 0.0083	1.98 ± 0.02

Variant	normalized RNA/DNA level without ligand (log10) [1]	normalized RNA/DNA level with ligand (log10) [2]
CACUUA	1.952 ± 0.0058	1.97 ± 0.058
GACUUA	1.982 ± 0.0071	1.99 ± 0.022
UACUUA	1.9834 ± 0.00066	2.01 ± 0.0084
CACUUC	2.04 ± 0.03	2.026 ± 0.012
AACUUC	2.063 ± 0.0082	2.039 ± 0.014
GACUUC	2.08 ± 0.029	2.064 ± 0.014
UACUUC	2.0503 ± 0.00055	2.03 ± 0.042
CACUUG	2.032 ± 0.0036	2.03 ± 0.0041
CACUUU	1.985 ± 0.013	1.98 ± 0.036
AACUUU	2.01 ± 0.022	2.01 ± 0.022
GACUUU	1.9897 ± 4.9e-05	1.97 ± 0.037
UACUUU	2.001 ± 0.0048	2.03 ± 0.042
CAGAAC	2.003 ± 0.0049	2.02 ± 0.056
UAGAAC	1.979 ± 0.012	2 ± 0.033
CAGAAG	1.925 ± 0.006	2.02 ± 0.03
AAGAAU	1.95 ± 0.0044	2.011 ± 0.014
GAGAAU	1.973 ± 0.0097	2.02 ± 0.051
GAGACA	1.976 ± 0.0079	2.01 ± 0.031
AAGACC	2.03 ± 0.033	2.03 ± 0.03
GAGACC	2.021 ± 0.0065	2.04 ± 0.057
UAGACC	2.039 ± 0.0018	2.013 ± 0.016
CAGACG	2.028 ± 0.0044	2.009 ± 0.0054
GAGACG	1.978 ± 0.014	2.031 ± 0.014

Variant	normalized RNA/DNA level without ligand (log10) [1]	normalized RNA/DNA level with ligand (log10) [2]
CAGACU	2.048 ± 0.0077	2.011 ± 0.0042
AAGACU	2.01 ± 0.0024	2.02 ± 0.04
CAGAGA	1.999 ± 0.019	2.01 ± 0.045
CAGAGC	2.013 ± 0.01	2.01 ± 0.028
AAGAGC	1.984 ± 0.0028	1.99 ± 0.044
GAGAGC	1.945 ± 0.01	2.03 ± 0.042
CAGAGU	1.996 ± 0.0082	2.02 ± 0.035
UAGAGU	1.855 ± 0.011	1.992 ± 0.016
GAGAUA	1.993 ± 0.011	2.03 ± 0.026
UAGAUA	1.961 ± 0.0041	2.01 ± 0.025
CAGAUC	2.046 ± 0.013	2.03 ± 0.052
GAGAUC	2.038 ± 0.0061	2.001 ± 0.014
UAGAUC	2.0543 ± 0.0014	2.06 ± 0.055
CAGAUG	2.0121 ± 0.0011	2.026 ± 0.019
GAGAUG	1.926 ± 0.0081	2.02 ± 0.035
CAGAUU	1.997 ± 0.01	2.004 ± 0.011
GAGAUU	2.017 ± 0.0046	2.01 ± 0.022
UAGAUU	1.98 ± 0.0065	2.01 ± 0.047
CAGCAA	1.963 ± 0.018	1.971 ± 0.013
GAGCAA	1.96 ± 0.025	2 ± 0.049
UAGCAA	1.918 ± 0.0043	1.98 ± 0.035
CAGCAC	2.03 ± 0.022	1.98 ± 0.045
AAGCAC	2.022 ± 0.0075	1.98 ± 0.045

Variant	normalized RNA/DNA level without ligand (log10) [1]	normalized RNA/DNA level with ligand (log10) [2]
UAGCAC	1.992 ± 0.0065	2 ± 0.036
CAGCAG	1.962 ± 0.015	2.03 ± 0.052
AAGCAG	1.925 ± 0.0059	2 ± 0.045
CAGCCA	1.9832 ± 0.0011	2.01 ± 0.063
AAGCCA	2.009 ± 0.0029	2.03 ± 0.022
UAGCCA	2.034 ± 0.011	2.046 ± 0.019
CAGCCC	2.077 ± 0.02	2.027 ± 0.013
AAGCCC	2.0608 ± 0.0014	2.04 ± 0.039
GAGCCC	2.023 ± 0.013	2.02 ± 0.053
UAGCCC	2.0516 ± 0.00055	2.03 ± 0.006
CAGCCG	2.044 ± 0.0032	2.053 ± 0.019
AAGCCG	1.988 ± 0.0067	2.01 ± 0.041
CAGCGA	2.03 ± 0.0044	2.002 ± 0.0065
AAGCGA	1.95 ± 0.02	2.02 ± 0.048
UAGCGA	1.921 ± 0.018	2.035 ± 0.019
CAGCGC	2.046 ± 0.016	2.01 ± 0.039
AAGCGC	2.025 ± 0.0081	2.03 ± 0.05
GAGCGC	2.002 ± 0.017	2.03 ± 0.054
UAGCGC	1.998 ± 0.018	2.005 ± 0.013
CAGCGG	1.984 ± 0.0099	2.06 ± 0.029
AAGCGG	1.941 ± 0.005	2 ± 0.054
GAGCGG	1.982 ± 0.011	2.06 ± 0.031
CAGCGU	1.999 ± 0.0031	1.99 ± 0.053

Variant	normalized RNA/DNA level without ligand (log10) [1]	normalized RNA/DNA level with ligand (log10) [2]
AAGCGU	1.956 ± 0.0071	2.02 ± 0.04
GAGCGU	1.982 ± 0.0095	2 ± 0.048
UAGCGU	1.921 ± 0.0035	1.99 ± 0.048
CAGCUA	2.02 ± 0.0022	2.04 ± 0.022
AAGCUA	1.991 ± 0.0072	2 ± 0.024
UAGCUA	1.9994 ± 0.0013	2.03 ± 0.048
CAGCUC	2.05 ± 0.023	2.035 ± 0.013
AAGCUC	2.055 ± 0.019	2.054 ± 0.014
GAGCUC	2.07 ± 0.011	2.05 ± 0.041
UAGCUC	2.08 ± 0.017	2.0396 ± 0.002
AAGCUG	2.01 ± 0.0066	2.048 ± 0.0075
GAGCUG	2.087 ± 0.0096	2.07 ± 0.051
UAGCUG	1.9 ± 0.021	2.026 ± 0.016
CAGCUU	1.987 ± 0.0035	2.01 ± 0.026
AAGCUU	2.01 ± 0.019	2.012 ± 0.0064
GAGCUU	2.051 ± 0.011	2.04 ± 0.064
UAGCUU	2.001 ± 0.012	2.02 ± 0.029
CAGGAA	1.928 ± 0.0064	1.99 ± 0.05
GAGGAA	1.952 ± 0.0031	2.01 ± 0.03
AAGGAC	1.966 ± 0.0074	1.99 ± 0.037
GAGGAC	1.947 ± 0.013	2.014 ± 0.016
CAGGAG	1.92 ± 0.022	2.03 ± 0.03
GAGGAG	1.9 ± 0.013	2.031 ± 0.017
